# Laboratory results: patent US20210292423A1 (published 2021)
# Where a chain is given by its changes, count along the chain named.
# B1: 18F5-H10 Fab (Fab, V domains shown)
# VH: EVQVVETGGSLVQPGKSLKLTCATSGFTFTNAWMHWVRRSPEKQLEWVAQIKDKSNNYATYYAESVKGRFTISRDDSKSSIYLQMNSLKEEDTAIYYCRYVHYRFAYALDAWGRGTSVSVSS
# VL: DVLMTQTPVSLSVSLGGQVSISCRSSQSLVHTNGNTYLSWYLQKPGQSPQLLIYKVSNRLSGISDRFSGSGSGTDFTLKISRVEPDDLGVYYCGQGTHYPFTFGAGTKLELKR
# notes: also called BDX-18F5-H10
# B2: 1E6-C9 Fab (Fab, V domains shown)
# VH: EVQLVETGGSLVQPGKSLKLTCATSGFTFSYAWMHWVRQSPDKQLQWVAQIKAKSNNYATYYAESVEGRFTISRDDSKSSVYLQMNSLKEEDTAIYYCRGVYYGLLGLDAWGQGTSVTVSS
# VL: DVVMTQTPVSLSVRLGGQVSISCRSSQSLVHNNGNTYLSWFLQKPGQSPQLLIYKVSNRFSGISDRFSGSASGTDFTLKISRVEPDDLGVYYCGQGTHYPFTFGSGTKLEIK
# notes: also called 1E6-B8; 1E6-B8/B9-C9-Fab
# B3: 11F9-F8 Fab (Fab, V domains shown)
# VH: EVQLVETGGTLVQPGKSLKLTCATSGFTFSNAWMHWVRQSPEKQLEWVAQIKAKSNNYATYYAESVKGRFTISRDDSKTSVYLQLNSLREEDTAIYYCRGTQYGYNPFDYWGQGVMVTVSS
# VL: B2 VL with M4L, R14S, F41S, L51V, D65N, A71G, T97A
# notes: also called 11F9-F8-huFab
# B4: 10E6-G6 Fab (Fab, V domains shown)
# VH: B3 VH with T10G, P14S, F29V, S30T, A59E, T79S, L85M, R89K
# VL: B2 VL with T7S, R14S, N35Y, F41Y, L51V, L52F, A71G, V83I
# B5: 13H2-C2 Fab (Fab, V domains shown)
# VH: EEELVETGGSLVQPGKSLKLTCATSGFTFSNAWMHWVRQSPDKQLEWVAQIKAKSNNYATYYAESVKGRFTISRDDSKSSVYLQMNNLKEEDTAIYYCRYVHYGLAPMDAWGQGTSVTVSS
# VL: B2 VL with R14S, F41Y, P45A, A71G, T77I, Y91F, H98Q, S105A, I111L
# notes: also called 13H2-C3
# B6: 12G3-E8 Fab (Fab, V domains shown)
# VH: EVRVVETGGSLVQPGKSLKLTCATSGFTFSLAWMHWVRQSPEKKLEWVAQIKDKANNYATYYAESVKGRFTISRDDSKRSVYLQMNRLKEEDTAIYYCRGVYYGFSMTPFDYWGQGVMVTVSS
# VL: B2 VL with V3A, R14S, F41Y, L51V, A71G, T74A, H98Q, S105A, I111L
# B7: 20E5-F10 Fab (Fab, V domains shown)
# VH: EVQLVETGENLVQPGKSLRLTCATSGFSFSNAWMHWIRQSPEKQLEWVAQIKDKSNNYATYYAESVNGRFTISRDDSKSSIYLHMDNLKEEDSAIYYCRYVHYGVRFFYTMDVWGQGTSVTVSS
# VL: B2 VL with R14S, G17D, S25P, F41Y, Q50H, L51P, A71G, H98Q
# notes: also called 20E5-F10-huFab
# Biological target: recombinant huCD3ε/γ protein with Fc-tag (PB01225) (human, UniProt P07766 23-126; P09693 23-116)
# Assay: SPR, CD3-Fc captured, Fab 100 nM
# Procedure: (§1) Binding was tested by SPR using a BIAcore3000 instrument run with HBS-EP buffer. Recombinant huCD3 proteins (ε/δ (PB01226), ε/γ (PB01225)) were captured at 10 μl/min via Fc-tag by anti-human Fc capture antibody MAB1302 (Millipore) immobilized on a CM5 sensor chip. Anti-CD3 Fabs were used as analytes at 100 nM with association and dissociation times of 240 sec and 300 sec, respectively at 30 μl/min. After each cycle the surfaces were regenerated by a 2 min pulse of 10 mM glycine buffer pH2.5.
row,RU of Fab binding at 100 nM [RU],Binder
1,7,B1
2,7,B2
3,7,B3
4,8,B4
5,6,B5
6,7,B6
7,8,B7

# Biological target: T1, human CD3ε/δ-Fc fusion protein (soluble recombinant CD3ε/δ complex) (human, UniProt P04234 22-105)
# T1 construct: also called huCD3ε/δ; huCD3; not shown: hinge, CH2, CH3 of human IgG with tag
# T1 sequence (chain, as listed by the source mutant, chain 1 of 2): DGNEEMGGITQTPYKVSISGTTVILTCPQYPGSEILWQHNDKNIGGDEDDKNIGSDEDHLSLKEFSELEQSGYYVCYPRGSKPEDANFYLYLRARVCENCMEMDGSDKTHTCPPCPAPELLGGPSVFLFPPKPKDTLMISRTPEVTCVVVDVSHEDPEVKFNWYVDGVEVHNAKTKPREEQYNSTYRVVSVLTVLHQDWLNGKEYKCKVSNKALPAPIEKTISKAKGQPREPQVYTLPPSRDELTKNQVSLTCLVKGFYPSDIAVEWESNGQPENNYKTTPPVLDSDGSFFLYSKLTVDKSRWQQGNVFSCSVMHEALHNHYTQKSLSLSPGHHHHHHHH
# T1 sequence (P04234 22-105, stated change not applied, chain 2 of 2): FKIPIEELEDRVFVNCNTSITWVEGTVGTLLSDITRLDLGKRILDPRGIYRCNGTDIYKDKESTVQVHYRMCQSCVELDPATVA
# Assay: SPR, CD3-Fc captured, Fab 100 nM
# Procedure: as §1
row,RU of Fab binding at 100 nM [RU],Binder
1,13,B1
2,10,B2
3,10,B3
4,11,B4
5,9,B5
6,10,B6
7,11,B7

# Biological target: T1, human CD3ε/δ-Fc fusion protein (soluble …)
# Assay: SPR Biacore, CD3εδ-Fc captured, Fab analyte
# Procedure: (§2) Binding affinities of anti-CD3 binding Fabs or CODV-Fabs were measured by surface plasmon resonance (SPR) using a Biacore3000 instrument (GE Healthcare). Assay buffer was HBS-EP (BR-1001-88, GE Healthcare). Capture of CD3ε/δ-Fc fusion proteins was achieved using the human antibody capture kit (GE Healthcare). […] The CD3εδ-Fc fusions proteins were captured at 10 μl/min to approx. 70 RU to yield Rmax values of 30 RU. Binding kinetics with the anti-CD3 Fabs or CODV-Fabs was measured at 30 μl/min for 240 sec. and 600 sec. for association and dissociation phase, respectively. Twofold dilutions of Fabs from 3 to 400 nM in assay buffer were used. All Fab concentrations were run in duplicate together with duplicate buffer blanks for double referencing. Regeneration of the capture surface was performed with a 1 min injection of 3M MgCl2 solution at 30 μl/min. For data analysis the BIAevaluation software v.4.1 (GE Healthcare) was used. Data were fit globally using a 1:1 Langmuir model with mass transfer.
Kd [nM],koff [s⁻¹],kon [M⁻¹ s⁻¹],Binder
0.89,0.00018,200000,B1
41,0.0039,93000,B2
5.2,0.0004,77000,B3
14,0.002,140000,B4
29,0.0049,170000,B5
9.3,0.0011,110000,B6
4.3,0.00043,99000,B7

# Biological target: T2, human CD3δ expressed alone on HEK293F cells (human, UniProt P04234 22-171)
# T2 construct: entry includes the signal peptide; also called huCD3δ
# T2 sequence (P04234 22-171 limits assumed, stated change not applied): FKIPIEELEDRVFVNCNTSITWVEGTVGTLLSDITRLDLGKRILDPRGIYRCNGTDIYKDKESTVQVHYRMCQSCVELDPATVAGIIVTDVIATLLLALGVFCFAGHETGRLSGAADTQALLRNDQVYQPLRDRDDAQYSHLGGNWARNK
# Assay: flow cytometry, HEK293F transfected with huCD3δ
# Procedure: (§3) To analyze binding of antibodies to human CD3ε and human CD3δ expressed on the surface of cells, HEK293F cells were transfected with both constructs either alone or in co-transfection and signals were measured by flow cytometry. For transfection procedure FuGENE HD Transfection Reagent (Promega, #E2311) was used according to manufacturer's protocol.
# Cells were incubated on a shaker at 37° C. and 5% CO2. At day one to three after transfection cells were harvested and binding of antibodies was analyzed by flow cytometry.
# (§4) Antibodies for staining were seeded at 1 μg in 50 μl per well Stain Buffer with FBS (BD Pharmingen) in 96-well U-bottom suspension culture plates (Greiner bio-one). Harvested transfected cells were resuspended in Stain Buffer with FBS and were added at 50 μl per well to the antibodies. Cells were incubated at 4° C. in the dark for 30 min and were washed twice. 0.5 μg secondary antibody Goat F(ab′)2 Anti-Human IgG-FITC (Beckman Coulter, #732598) or Goat F(ab′)2 Anti-Human kappa-PE (Southern Biotech, #206209), respectively, in combination with 0.5 μg 7-AAD per well was added in 100 μl Stain Buffer with FBS. Cells were incubated at 4° C. in the dark for 15 min and were washed twice. For measurement, cells were resuspended in 200 μl Stain Buffer with FBS. Cells were measured using the MACSQuant (Miltenyi Biotec) or LSRII (BD) flow cytometer, respectively. Further data analyses were performed using the FlowJo software (Tree Star, Inc.).
row,Binder,binding result
1,B1,no binding (tested: <20% of binding of huCD3e + huCD3d)
2,B2,no binding (tested: <20% of binding of huCD3e + huCD3d)
3,B3,no binding (tested: <20% of binding of huCD3e + huCD3d)
4,B4,no binding (tested: <20% of binding of huCD3e + huCD3d)
5,B5,no binding (tested: <20% of binding of huCD3e + huCD3d)
6,B6,no binding (tested: <20% of binding of huCD3e + huCD3d)
7,B7,no binding (tested: <20% of binding of huCD3e + huCD3d)

# Biological target: T1, human CD3ε/δ-Fc fusion protein (soluble …)
# Assay: SPR Biacore, Fab
# Procedure: as §2
Kd [nM],koff [s⁻¹],kon [M⁻¹ s⁻¹],Binder
1,0.00018,200000,B1

# Biological target: T3, human CD3ε expressed alone on HEK293F cells (human, UniProt P07766 23-207)
# T3 construct: also called huCD3ε
# Assay: flow cytometry, transfected HEK293F
# Procedure: as §3, §4
row,% antibody positive transfected cells [%],Binder
1,70.6,B1
2,87.7,B2
3,97,B3
4,96.3,B4
5,93.3,B5
6,96.3,B6
7,96.7,B7

# Biological target: T4, human CD3ε and CD3δ co-expressed on HEK293F cells (human, UniProt P07766 23-207; P04234 22-171)
# T4 construct: also called huCD3ε/δ (transfected cells); huCD3e + huCD3d
# Assay: flow cytometry, transfected HEK293F
# Procedure: as §3, §4
row,% antibody positive transfected cells [%],Binder
1,70.4,B1
2,91.7,B2
3,96,B3
4,93.3,B4
5,93,B5
6,96.7,B6
7,95.3,B7

# Biological target: T5, human CD3 (TCR complex) on primary human T cells or Jurkat cells (human, UniProt P07766 23-207)
# T5 construct: on the cells it stands in the whole TCR/CD3 complex; also called Jurkat E6-1 (expressing human TCR)
# Assay: flow cytometry, primary human T cells
# Procedure: The binding capacity of the CD3-Fabs was determined by flow cytometry. Primary human T cells were used as target cells. Therefore, peripheral blood mononuclear cells (PBMCs) were isolated from 200 ml peripheral blood of healthy donors treated with EDTA by Ficoll density centrifugation. 15 ml Histopaque (Sigma-Aldrich) was preloaded on a 50 ml Leucosep-Tube (Greiner bio-one). Blood was diluted with autoMACS Rinsing Buffer+1% BSA (Miltenyi Biotec) and loaded on the membrane of a total of ten prepared tubes. Tubes were centrifuged without brake for 10 min at 1000 xg. PBMCs were collected and washed with autoMACS Rinsing Buffer+1% BSA three times. Finally, PBMCs were resuspended in autoMACS Running Buffer (Miltenyi Biotec) for isolation of T lymphocytes by autoMACSpro technology using the Pan T Cell isolation Kit (Miltenyi Biotec) according to manufacturer's instructions. Purity of separated T cells was analyzed by MACSQuant flow cytometry using the human 7-Color Immunophenotyping Kit (Miltenyi Biotec). Isolated T cells were resuspended in Stain Buffer with FBS (BD Pharmingen) and 1E5 cells in 100 μl per well were seeded in 96-well U-bottom suspension culture plates (Greiner bio-one). Fab antibodies were diluted 1:3 in serial in PBS (Invitrogen) and 5 μl each were added to the cells at a final maximum concentration of 30000 ng/ml. The assay was incubated for 45 min at 4° C. Cells were washed twice with Stain Buffer with FBS and 1 μg secondary antibody Goat F(ab′)2 Anti-Human kappa-FITC (Beckman Coulter, #732621) per well was added in 100 μl Stain Buffer with FBS per well. The assay was incubated for 20 min at 4° C. and washed twice afterwards. Cells were resuspended in 150 μl Stain Buffer with FBS per well and were measured using the MACSQuant (Miltenyi Biotec) or LSRII (BD) flow cytometer. Further data analyses were performed using the FlowJo software (Tree Star, Inc.). Read out was percentage of cells positive for antibody binding. Cells treated only with the secondary but no primary antibody were used to set the gates. EC50 Curves were calculated by XLfit (Algorithm 205), EC50 values were calculated as inflection point of the slope (data are shown in table 6).
row,EC50 [nM],Binder
1,4.1,B1
2,18.7,B2
3,11.6,B3
4,4.7,B4
5,14.3,B5
6,4.4,B6
7,8.2,B7
